From patent US9271932B2, “Fusogenic properties of saposin C and related proteins and peptides for application to transmembrane drug delivery systems” (CHILDREN'S HOSPITAL MEDICAL CENTER, priority 2006, dated 2016)
Blank lines part the entries; values can stand above or below the molecule they belong to.

Legend:
[1] = Fluorescence stopped-flow of saposin C binding to PS vesicles; settings: PS(18:1,1) or BPS vesicles
From the text: To investigate temporal and spatial interactions of saposins and liposomal membrane, fluorescence stopped-flow and quenching approaches are used with Trp as the intrinsic fluorescence probe of the saposins. These experiments allow identification of regional interactions between saposins and lipid bilayers, and also the kinetics of their binding.
This binding induces change is lipid-concentration dependent and requires at least one unsaturated fatty acid chain. To evaluate the kinetics of this interaction, stopped-flow experiments are conducted the change in fluorescence during saposin C/liposome complex formation is monitored. When saposin C(0W) is mixed with PS(18:1,1) or BPS vesicles, fluorescence of Trp is increased, but the time course of this change is undetectable due to limitation of the machine's capability. Apparently, the interaction of saposin C and unsaturated PS containing membranes occurs within at least 10 ms.

[2] = R18 dequenching stopped-flow liposomal fusion assay; assay type: biochemical; settings: unsaturated PS(18:1,1) vesicles, compared with Ca^2+
From the text: Fluorescence probes have been widely used to determine membrane fusion, such as fluorescence dequenching, and fluorescence resonance energy transfer (FET), and can be used for quantitative and kinetics analyses. The dequenching approach is used to investigate saposin C's fusogenic activity. Octadecyl rhodamine B (R18) is selected as fluorescence probe and is entrapped in internal aqueous compartment of liposomal vesicles by co-sonication with BPS or PS(18:1,1).
Fluorescence increase (dequenching) of R18 occurs upon R18 concentration decreases. After non-labeled and labeled vesicles fuse, the R18 concentration is diluted, resulting in an increase in intensity of fluorescence. R18-labeled vesicles (lipid:R18=96:4, mol:mol) are mixed with the same lipid vesicles without fluorescence probe. Stopped-flow assays are conducted to quickly mix these vesicles with saposin C or Ca^2+ ion. Time-trace curves are generated for kinetic analysis. […] Fusion occurs extensively when reaction temperature is above the phase Transition temperature (Tc) of phospholipids. The Tc of synthetic PS(18:1) is about −11° C., while the Tc of PS(18:0) is very high (68° C.). Thus, the lipid bilayer phase of PS(18:1,1) is different to that of BPS(18:0 and 18:1) at 24° C.

[3] = Vesicle size change determination (N4 plus submicron particle sizer); assay type: biochemical
From the text: The amino acid residues 51-67 are necessary, but not sufficient, for its optimal enzymatic activation function. The disulfide structure and conformational alteration of saposin C upon lipid binding are also required for this activity. Three approaches are used for this study: (1) stopped-flow monitoring reduction of self-quenching resulting from fusion of fluorescence probe-containing vesicle with non-fluorescent vesicle induced by saposin C; (2) monitoring the lipid vesicle size changes upon addition of saposin C to vesicles, the size distribution as determined using N4 plus submicron particle sizer (Coulter Co.); (3) monitoring intrinsic fluorescence of Trp-saposin C change during liposomal fusion.
[…] is used for vesicle fusion analysis, since the size of fused vesicles is bigger than those of non-fused. N4 plus submicron particle size is used to estimate particle sizes in the range of 3 nm to 3 μm since most liposomes fit in this range. Sonication conditions with a cup sonicator give mono-dispersed BPS-liposomes with ˜200 nm in size. Upon addition of saposin C, these vesicles change to a larger size up to 2-3 μm. The size increase is related to vesicles fusion as shown by the above dequenching experiments.
Saposin C promotes the size changes at ˜50 nM concentration. To define the regions responsible for this fusion property, peptides containing only 50% of the NH2-terminal or 50% of the COOH-terminal halves in saposin C are tested. Both peptides show fusion activity.

[4] = Saposin C-PS(18:1,1) liposome complex: stability and mechanism of fusion; assay type: biochemical
Method: Protein conformational changes are thought to play a role in protein-mediated membrane fusion. This fusion mechanism is evaluated using saposin C-dependent membrane fusion. First, saposin C—PS(18:1,1) liposome complexes are formed. In this saposin C-anchored membrane, protein conformation is altered. This complex is stable from pH 3 to 10, and in low concentrations of SDS solution.
Since the Trp in saposin C(0W) is embedded inside of lipid bilayer, the change of its signal is indicative of that the surrounding environment of Trp has been changed. After about 20 to 30 ms, Trp fluorescence signal decreases to the starting level. […] Shortly after this, the signal drops back to starting level signaling on end of the fusion process. […] Therefore, a conformational change of saposin C upon lipid binding is […] for its fusogenic activity.

[5] = test system: cultured mouse cortical and hippocampal neurons; assay: Transport of saposin C into cultured neurons by DOPS liposomes; assay type: cell-based; settings: facilitated by complexes with DOPS liposomes
Method: Saposin C can be transported into endosomal and lysosomal compartments using saposin-C liposomes containing long-chain anionic phospholipids. This method can be used for the treatment of neurological diseases including, for example, those in which MVB accumulation contributes to pathology and progression of disease.
Primary Cortical Neuron Cultures—Cortical neurons are cultured in serum-free Neuroblasal medium with B27 supplements as described by Whitmarsh et al.^44 Take out E16 mouse embryos, cut the head and place them into ice-cold Ca/Mg-free Hank Balance Salt Solution (HBSS) with papain (1 mg/ml). The brain is dissected out and place scalpel along the dorsal midline between the two cerebral hemispheres but slightly deviate towards to the side as it cut. This will give a clean cerebral cortex. […]
Immunofluorescence staining is done as described with minor modification.^15 Cultured cells (1×10^5) in a dish with coverslips are washed with PBS and fixed with 2% paraformaldehyde for 10 min at room temperature. After treating with 0.1% Triton X-100 in PBS, the samples are incubated with each respective primary antiserum (for 2 h) and fluorescence-conjugated secondary antibody (for 1 h) at 37° C. […] Antifade is added on the section to prevent the fluorescence quenching. Fluorescence signals are detected by a confocal microscopy (LSM510, Zeiss) or a fluorescence microscopy (Zeiss Axioskop).

acid β-glucosidase = molecular target: T1, acid β-glucosidase (Homo sapiens, UniProt P04062); assay: Acid β-glucosidase activation in liposomal reconstitution system; assay type: biochemical
T1 sequence (P04062 40-536): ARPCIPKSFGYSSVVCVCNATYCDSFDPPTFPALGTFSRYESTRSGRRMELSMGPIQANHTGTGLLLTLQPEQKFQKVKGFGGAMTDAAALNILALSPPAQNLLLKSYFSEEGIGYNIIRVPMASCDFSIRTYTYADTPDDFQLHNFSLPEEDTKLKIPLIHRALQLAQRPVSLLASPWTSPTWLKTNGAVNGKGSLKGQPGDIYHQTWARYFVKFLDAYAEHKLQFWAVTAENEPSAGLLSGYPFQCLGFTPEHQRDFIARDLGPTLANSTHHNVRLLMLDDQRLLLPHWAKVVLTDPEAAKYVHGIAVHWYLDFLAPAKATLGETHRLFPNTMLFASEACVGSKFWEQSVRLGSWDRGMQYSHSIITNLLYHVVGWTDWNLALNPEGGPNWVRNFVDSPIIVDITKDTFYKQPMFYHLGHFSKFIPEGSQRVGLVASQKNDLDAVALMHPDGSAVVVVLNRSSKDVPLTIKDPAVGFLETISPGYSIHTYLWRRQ
Method: Functional saposins were overexpressed in BL21(DE3) cells using a pET 21a series vector. Following IPTG induction at 37° C. or 30° C., large amounts of saposins containing His-Tag were found in the soluble fraction of the disrupted cells. These were conveniently purified to electrophoretic homogeneity on nickel-loaded columns. Alternatively, saposins without His-Tag were generated by introducing a stop codon after protein coding region, and then purified using immuno-affinity columns with T7-taq monoclonal antibody. […] Circular dichroism spectra, light scattering, and ES-MS analyses were used to evaluate the physical properties of the purified saposins, such as aggregation status and molecular weight. Trp-saposins without His-Tag were also generated for necessary control experiments. The functional integrity of recombinant saposin C is determined using delipidated and homogenous acid β-glucosidase in a liposomal reconstitution system and in neuritogenic assays. Recombinant saposin B function is determined using a sulfatide binding assay.

time within which interaction with unsaturated PS containing membranes occurs [1]: ≤ 10 ms
activation of acid β-glucosidase (acid β-glucosidase): excellent activation
B1: Saposin C: Recombinant saposin C, prosaposin-derived fusogenic lysosomal protein, expressed in E. coli (His-tag) (protein, listed as Homo sapiens)
chain: SDVYCEVCEFLVKEVTKLIDNNKTEKEILDAFDKMCSKLPKSLSEECQEVVDTYGSSILSILLEEVSPELVCSMLHLCSG
modifications: His-tag
kinetics of induced membrane fusion [2]: same kinetics as those with Ca^2+
concentration promoting the size changes ([3]; BPS-liposomes): ~50 nM
vesicle size after addition of saposin C ([3]; mono-dispersed BPS-liposomes of ~200 nm before addition): 2-3 μm
vesicle size enlargement ([3]; pH 4.7, over a 10 min period): enlarges vesicle size
vesicle size enlargement ([3]; pH 7.4, over a 10 min period): not at pH 7.4
fusogenic activity when bound to lipid membrane [4]: retains the fusogenic activity
transport into neurons [5]: can be transported into the cultured mouse cortical and hippocampal neurons

effect of Trp substitutions on activation properties (acid β-glucosidase): no effect
B2: Saposin C(S37W): saposin C with a Trp at residue 37 (in the middle) (protein, UniProt P07602 311-390, looked up, variant S37W)
Saposin-C: SDVYCEVCEFLVKEVTKLIDNNKTEKEILDAFDKMCWKLPKSLSEECQEVVDTYGSSILSILLEEVSPELVCSMLHLCSG
modifications: Saposin-C

B3: Saposin C + Phosphatidylserine (18:1, 1): saposin C complexed with acidic, unsaturated phosphatidylserine PS(18:1,1) liposomes (protein, UniProt P07602 311-390, looked up)
Saposin-C: SDVYCEVCEFLVKEVTKLIDNNKTEKEILDAFDKMCSKLPKSLSEECQEVVDTYGSSILSILLEEVSPELVCSMLHLCSG
modifications: Saposin-C complexed with phosphatidylserine liposomes
notes: saposin C complexed with acidic, unsaturated phosphatidylserine PS(18:1,1) liposomes
stability in low concentrations of SDS solution [4]: stable
